Columns and labels:
olivetolic acid = assay: MPT4.1 with and without GPS1.1 fusion vs MPT4 fusion, in vivo assay (Example 5); assay type: cell-based, Yarrowia; conditions: 3 mM olivetolic acid, 48 h quench
Protocol: As described below, plasmids pCL-SE-0337.MPT4.1 and pCL-SE-0753 were transformed into strain sCL-SE-0128. Multiple colonies per transformation were precultured for 24 h in YNB containing glucose (2%), casamino acids (0.5%), and MES (100 mM pH 6.5). Pre-culture was used to inoculate assay medium comprised of YNB containing glucose (6%), casamino acids (0.5%), MES (100 mM pH 6.5), and olivetolic acid (3 mM). Cultures were quenched with equal volume of ethanol after 48 h total growth and assayed for CBGA and FCBGA. Averages and standard deviations were calculated from replicates.
Overnight YPD (10 g/L yeast extract, 20 g/L peptone, 2% dextrose) cultures were inoculated from glycerol stocks of the appropriate strain and grown at 30° C. with 250 rpm shaking. Once cultures had reached an OD600 of 4-6, cultures were centrifuged at 500×g for 5 min, supernatants were discarded, and cell pellets were resuspended in equal volume of water. Resuspended cells were centrifuged at 500×g for 5 min, supernatants were discarded, and cells were resuspended in a volume (75 μL×OD×Vculture) of transformation cocktail (45% PEG-400, 0.1 M LiAc, 0.1 M DTT, and 25 ug/100 μL SS Salmon Sperm DNA). For each transformation, >1 μg of plasmid DNA was added to 55 μL cells/transformation cocktail and vortexed for 2 s. Transformations were incubated at 39° C. for 1 h with 250 rpm shaking. Transformations were resuspended in 750 μL YPD with 1 M sorbitol and recovered at 30° C. overnight with 250 rpm shaking. The next day, transformations were centrifuged at 500×g for 5 min, supernatants were discarded, and cell pellets were resuspended in 750 YPD. Resuspended transformations were plated on YPD with appropriate selection or YNBD (6.71 g/L yeast nitrogen base+nitrogen, 0.5% casamino acids, 2% dextrose) agar plates and grown at 30° C. for 2 days. Individual colonies were patched onto YPD plates with appropriate selection or YNBD plates and grown at 30° C. overnight. Patches were used to inoculate 0.5 mL YPD with appropriate selection or YNBD precultures in 96 w blocks and grown at 30° C. for 24-48 h with 1000 rpm shaking. For assays, 0.5 mL YPD with appropriate selection or YNBD cultures containing substrate were inoculated with 2 μL from precultures and grown at 30° C. for 2-4 days with 1000 rpm shaking with 2% glucose added every 24 h. Assay cultures were quenched by addition of 0.5 mL ethanol with 0.2% formic acid and 0.5 mg/mL pentyl-benzoic acid. Precipitates were pelleted by centrifuging at 4600×g for 10 min and then 200 μL was transferred to fresh plates, sealed, and analyzed via HPLC.
All samples were quenched with equal volume of EtOH containing 0.2 mg/mL internal standard (3,5-Diisopropyl-2-hydroxybenzoic acid CAS #2215-21-6) centrifuged, and clarified solutions were analyzed by HPLC-MS
• Column: 2.1×50 mm COSMOCORE PBr (Nacalai USA, Inc.) • Mobile Phase: A; 0.1% formic acid in water, B; 0.1% formic acid in acetonitrile • Flow: 0.45 mL/min • Temp: % 50 Celsius • Gradient: 20%B at 0 min, 70%B at 2.3 min, 89% B at 4.2 min, 20% B at 4.3 min, 20%B at 6 min

divarinic acid = assay: MPT fusions with GPS1.1 vs unfused MPTs, DVA feed (Example 9, Table 11); assay type: cell-based, Yarrowia; conditions: 2 mM divarinic acid, 2% glucose, quenched after 48 h; strain sCL-SE-0128
How it was run: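 Strain sCL-SE-0128 transformed with MPT or fused-MPT plasmids, several colonies each, precultured 48 h in YNB/glucose/casamino acids/MES pH 6.5. Assay medium carried 2 mM divarinic acid; cultures quenched with ethanol at 48 h total growth and CBGVA and FCBGVA quantified by HPLC-MS against internal standard, averaged over replicates.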

B1: GPS1.1-F11-MPT4: fusion of GPS1.1 and MPT4 via F11 linker, SEQ ID NO: 16 (protein)
chain: MSKAKFESVFPRISEELVQLLRDEGLPQDAVQWFSDSLQYNCVGGKLNRGLSVVDTYQLLTGKKELDDEEYYRLALLGWLIELLQAFWLVSDDIMDESKTRRGQPCWYLKPKVGMIAIWDAFMLESGIYILLKKHFRQEKYYIDLVELFHDISFKTELGQLVDLLTAPEDEVDLNRFSLDKHSFIVRYKTAYYSFYLPVVLAMYVAGITNPKDLQQAMDVLIPLGEYFQVQDDYLDNFGDPEFIGKIGTDIQDNKCSWLVNKALQKATPEQRQILEDNYGVKDKSKELVIKKLYDDMKIEQDYLDYEEEVVGDIKKKIEQVDESRGFKKEVLNAFLAKIYKRQKGGAEAAAKEAAAKAGGSGGGSGGGGSGGSGGGGSGGGGSMSDNSIATKILNFGHTCWKLQRPYVVKGMISIACGLFGRELFNNRHLFSWGLMWKAFFALVPILSFNFFAAIMNQIYDVDIDRINKPDLPLVSGEMSIETAWILSIIVALTGLIVTIKLKSAPLFVFIYIFGIFAGFAYSVPPIRWKQYPFTNFLITISSHVGLAFTSYSATTSALGLPFVWRPAFSFIIAFMTVMGMTIAFAKDISDIEGDAKYGVSTVATKLGARNMTFVVSGVLLLNYLVSISIGIIWPQVFKSNIMILSHAILAFCLIFQTRELALANYASAPSRQFFEFIWLLYYAEYFVYVFI
modifications: GPS1.1-F11-MPT4, geranyl diphosphate synthase, membrane-bound prenyltransferase fusion protein
CBGA (olivetolic acid; 6% glucose, strain sCL-SE-0128): 326 ± 16 µM
FCBGA (olivetolic acid; 6% glucose, strain sCL-SE-0128): 62 ± 2 µM
CBGA/FCBGA (olivetolic acid; product ratio): 5.2
CBGVA (divarinic acid): 45 ± 2 µM
FCBGVA (divarinic acid): 0 ± 0 µM
